Laboratory results: PMC5774586
One block for each molecule: values may come before it.

Legend:
[1] = molecular target: FOXA1-Venus (UniProt P55317); assay: FRET or BRET
[2] = molecular target: T1, ESR1-Cerulean, P03372; assay: FRET or BRET; conditions: remark: other sources report otherwise
T1 chain: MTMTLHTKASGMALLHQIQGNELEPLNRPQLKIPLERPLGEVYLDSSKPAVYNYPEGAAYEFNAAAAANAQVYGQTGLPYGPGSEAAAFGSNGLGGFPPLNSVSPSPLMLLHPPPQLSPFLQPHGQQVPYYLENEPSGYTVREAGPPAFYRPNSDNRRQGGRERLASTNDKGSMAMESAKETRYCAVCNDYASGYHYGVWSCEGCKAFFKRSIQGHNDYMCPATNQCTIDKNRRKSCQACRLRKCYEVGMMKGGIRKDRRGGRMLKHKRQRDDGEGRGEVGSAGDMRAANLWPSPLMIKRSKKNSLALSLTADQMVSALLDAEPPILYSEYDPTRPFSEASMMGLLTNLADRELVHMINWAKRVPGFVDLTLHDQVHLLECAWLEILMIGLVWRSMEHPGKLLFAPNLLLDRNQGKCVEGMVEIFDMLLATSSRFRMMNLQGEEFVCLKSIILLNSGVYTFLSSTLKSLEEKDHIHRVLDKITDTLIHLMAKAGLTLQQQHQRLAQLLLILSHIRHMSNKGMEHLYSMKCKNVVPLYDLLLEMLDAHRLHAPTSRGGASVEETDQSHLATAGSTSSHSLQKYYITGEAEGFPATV

FRET efficiency [1]: 0.055
Molecule: NFIB-Cerulean (from UniProt O00712 1-420) (natural protein)

FRET efficiency [2]: 0.139
B1: FOXA1-Venus, P55317 1-472 (natural protein)
chain: MLGTVKMEGHETSDWNSYYADTQEAYSSVPVSNMNSGLGSMNSMNTYMTMNTMTTSGNMTPASFNMSYANPGLGAGLSPGAVAGMPGGSAGAMNSMTAAGVTAMGTALSPSGMGAMGAQQAASMNGLGPYAAAMNPCMSPMAYAPSNLGRSRAGGGGDAKTFKRSYPHAKPPYSYISLITMAIQQAPSKMLTLSEIYQWIMDLFPYYRQNQQRWQNSIRHSLSFNDCFVKVARSPDKPGKGSYWTLHPDSGNMFENGCYLRRQKRFKCEKQPGAGGGGGSGSGGSGAKGGPESRKDPSGASNPSADSPLHRGVHGKTGQLEGAPAPGPAASPQTLDHSGATATGGASELKTPASSTAPPISSGPGALASVPASHPAHGLAPHESQLHLKGDPHYSFNHPFSINNLMSSSEQQHKLDFKAYEQALQYSPYGSTLPASLPLGSASVTTRSPIEPSALEPAYYQGVYSRPVLNTS
